The text below walks through data of article PMC1931592.

Assay [1] deals with Recombinant human caspase-9 (active) (human) (UniProt P55211). As to the kind of experiment: enzyme inhibition assay (fluorogenic substrate cleavage); one unit of active recombinant human caspase incubated with various concentrations of peptide inhibitor in 100 mM NaCl, 50 mM HEPES, 10 mM DTT, 1 mM EDTA, 10% glycerol, 0.1% CHAPS, pH 7.4, 37°C, 30 min; then 200 μM substrate (Ac-DEVD-MCA for caspases-3 and -7, Ac-IETD-MCA for caspase-8, Ac-LEHD-MCA for caspase-9); apparent Ki = IC50/(1+[S]/Km).

Assay [2] deals with T1, substituted (S209A) active caspase-3 generated by coexpression of HA-p17 and HA-p12 (S209A) subunits (human) (UniProt P42574).
T1 sequence 1: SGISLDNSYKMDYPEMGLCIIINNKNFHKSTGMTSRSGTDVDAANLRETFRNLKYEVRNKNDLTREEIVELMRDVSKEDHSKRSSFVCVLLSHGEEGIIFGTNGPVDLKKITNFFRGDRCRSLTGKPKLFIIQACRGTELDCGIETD
T1 sequence 2: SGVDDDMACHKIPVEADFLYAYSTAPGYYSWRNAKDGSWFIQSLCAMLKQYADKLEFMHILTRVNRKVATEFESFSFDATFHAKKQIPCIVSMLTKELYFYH

A value given as a limit tells only on which side of the number the result lay.

Recombinant human caspase-9 (active) (human), sequence (P55211 whole entry): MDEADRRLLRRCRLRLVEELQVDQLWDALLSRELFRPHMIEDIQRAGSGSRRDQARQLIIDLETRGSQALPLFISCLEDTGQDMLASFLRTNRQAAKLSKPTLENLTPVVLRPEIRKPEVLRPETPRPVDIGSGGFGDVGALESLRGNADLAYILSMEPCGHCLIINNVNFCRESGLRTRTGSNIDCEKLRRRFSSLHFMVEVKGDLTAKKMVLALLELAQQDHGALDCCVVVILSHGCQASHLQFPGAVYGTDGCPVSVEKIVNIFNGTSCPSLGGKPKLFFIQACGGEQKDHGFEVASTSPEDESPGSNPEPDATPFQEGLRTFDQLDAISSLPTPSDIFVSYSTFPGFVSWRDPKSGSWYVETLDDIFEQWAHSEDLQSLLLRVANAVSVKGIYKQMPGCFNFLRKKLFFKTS

Take Ac-DEVD-CHO (peptide): the Ki in assay [1] came out at 1.35 nM. On the same count and under the same terms, the result for Ac-DNLD-CHO (peptide) reads above 200 nM. Turning to Ac-DNLD-MCA (peptide), the cleavage of Ac-DNLD-MCA by in vitro translated S209A active caspase-3, against the wild type (% loss of cleavage activity) in assay [2] is above 60.
